Results taken from patent US20220018842A1 (FUKUSHIMA MEDICAL UNIVERSITY, published 2022).

Key:
[1] = target: T1, claudin 6 (CLDN6) protein (human, UniProt P56747 1-220); experiment: Western blot of extract of HEK293T cells expressing CLDN6
T1 construct: also called human CLDN6 protein
T1 sequence: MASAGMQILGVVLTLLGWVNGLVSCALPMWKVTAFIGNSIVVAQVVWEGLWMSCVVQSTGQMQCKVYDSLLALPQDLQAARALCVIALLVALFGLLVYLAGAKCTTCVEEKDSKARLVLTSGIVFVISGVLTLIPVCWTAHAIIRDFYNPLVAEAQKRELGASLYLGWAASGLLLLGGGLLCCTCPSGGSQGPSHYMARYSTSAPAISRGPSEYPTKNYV

[2] = target: T2, antigen peptide having the amino acid sequence from the 208th position to the 220th position of the human … (human); experiment: ELISA of hybridoma culture supernatant on coated antigen peptide
T2 construct: Coupled to KLH for immunisation
T2 peptide: SRGPSEYPTKNYV
Procedure: After 4 days of culture, the medium was exchanged with 100 μL of hybridoma medium. Positive clones were screened by ELISA using 50 μL of the culture supernatant 2 days after the exchange. The screening was performed by the following procedure.
First, the antigen peptide solution was diluted to 3 μg/mL, 100 μL was added to each well of a 96-well ELISA plate, and the mixture was allowed to stand overnight at 37° C. Then, the antigen peptide solution was removed from each well, the wells were washed with 200 μL of PBS, then a blocking solution (1% bovine serum albumin/PBS) was added, and the mixture was allowed to stand at 37° C. for 1 hour. Then, the blocking solution was removed from each well, the wells washed with 200 μL of PBS, 50 μL of culture supernatant was added, and the mixture was reacted at 37° C. for 1 hour. After removing the culture supernatant from each well, the wells were washed 3 times with 200 μL of PBS. […] After that, the secondary antibody solution was removed from each well, the wells were washed 3 times with PBS, and then the color was developed using TMB Substrate Set (BioLegend) with the method recommended by the manufacturer, and the absorbance was measured.

CLDN1 = target: T3, CLDN1 (UniProt O95832 1-211, limits assumed); experiment: Western blot of extract of HEK293T cells expressing the claudin; undiluted culture supernatant
T3 construct: whole, on cells; also called claudin 1
T3 sequence (looked up): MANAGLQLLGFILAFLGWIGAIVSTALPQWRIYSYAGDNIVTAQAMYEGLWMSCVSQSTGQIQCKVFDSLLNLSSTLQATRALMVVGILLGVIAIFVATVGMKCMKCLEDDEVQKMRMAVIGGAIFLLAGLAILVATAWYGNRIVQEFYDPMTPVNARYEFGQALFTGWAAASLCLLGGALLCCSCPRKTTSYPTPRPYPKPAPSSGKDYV
Procedure: (§1) 48 hours after the introduction of each gene, protein was extracted using a lysate in which the proteolytic enzyme inhibitor, Complete mini EDTA-free (Roche Diagnostics) was added to CelLytic™ MT Cell Lysis Reagent (Sigma-Aldrich) at a concentration of […]. SDS-PAGE, […], and antibody reaction were sequentially performed according to a standard protocol, chemiluminescence was performed by ECL™ Prime Western Blotting Detection reagent (GE Healthcare), and images were taken using CCD imager Image Quant LAS4000 (GE Healthcare). The primary antibody was reacted overnight at 4° C. using a culture supernatant stock solution of αCLDN6 #C6C15-1, and the secondary antibodies were reacted for 30 minutes using ECL™ Rat IgG, HRP-linked whole antibody (Sigma-Aldrich) diluted 2,000-fold with PBS, and ECL™ Rabbit IgG and HRP-linked whole antibody (Sigma-Aldrich) described in Table 1 diluted 5,000-fold with PBS, respectively.
(§2) In order to confirm the antigen specificity and cross-reactivity of the anti-CLDN6 monoclonal antibody (αCLDN6 #C6C15-1) produced in the Examples, Western blotting was performed for CLDN1, CLDN4, CLDN5, CLDN6, and CLDN9 for verification.

CLDN4 = target: T4, CLDN4 (UniProt O14493 1-209, limits assumed); experiment: as above
T4 construct: whole, on cells; also called claudin 4
T4 sequence (looked up): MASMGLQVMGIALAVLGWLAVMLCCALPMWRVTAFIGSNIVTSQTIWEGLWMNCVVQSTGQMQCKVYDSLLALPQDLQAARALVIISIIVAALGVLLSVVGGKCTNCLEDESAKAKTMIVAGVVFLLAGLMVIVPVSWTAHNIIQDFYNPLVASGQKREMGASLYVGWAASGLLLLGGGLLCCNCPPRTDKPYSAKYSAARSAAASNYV
Procedure: as §1, §2

CLDN5 = target: T5, CLDN5 (UniProt O00501 1-218, limits assumed); experiment: as above
T5 construct: whole, on cells; also called claudin 5
T5 sequence (looked up): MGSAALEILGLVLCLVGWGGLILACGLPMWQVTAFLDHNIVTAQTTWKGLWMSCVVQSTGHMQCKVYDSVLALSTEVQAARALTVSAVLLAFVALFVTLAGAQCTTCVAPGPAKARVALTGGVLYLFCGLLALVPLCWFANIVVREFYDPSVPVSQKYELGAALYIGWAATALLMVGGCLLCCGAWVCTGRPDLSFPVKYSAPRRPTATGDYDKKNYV
Procedure: as §1, §2

CLDN9 = target: T6, CLDN9 (UniProt O95484 1-217, limits assumed); experiment: as above
T6 construct: whole, on cells; also called claudin 9
T6 sequence (looked up): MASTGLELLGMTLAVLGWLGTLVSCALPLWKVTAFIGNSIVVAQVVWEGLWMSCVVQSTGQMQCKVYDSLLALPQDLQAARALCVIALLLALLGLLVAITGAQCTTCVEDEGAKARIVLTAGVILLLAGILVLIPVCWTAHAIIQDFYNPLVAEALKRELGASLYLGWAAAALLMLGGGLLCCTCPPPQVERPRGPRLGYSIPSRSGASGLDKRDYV
Procedure: as §1, §2

B1: Rat αCLDN6 #C6C15-1 monoclonal antibody (antibody, V domains shown)
VH: EVKLVETGGGLVKPGGSLRLSCATSGFNFNDYFMNWVRQAPGKGLEWVAQIRNKNYNYATYYAESLEGRVTISRDDSKSSVYLQVSSLRAEDTAIYYCTRGAYWGQGVMVTVSS
VL: DIVMTQSPSFLSASVGERVTLSCRASQNINKYLDWYQQKLGEAPKLLIYDTNNLHAGIPSRFSGSGSGTDYTLTISSLQPEDVATYFCLQRNSWPYTFGAGTKLELK
notes: Rat hybridoma monoclonal antibody (detected with anti-rat IgG), used as undiluted culture supernatant; constant regions and isotype are not; also called αCLDN6 #C6C15-1 antibody; ACLDN6 #C6C15-1 antibody
B1: binds [1]; binds [2]; no binding (CLDN1). B1: no binding (CLDN4); no binding (CLDN5); no binding (CLDN9).
